Experimental data reported in article PMC9965484.

Molecular target: Fibroblast activation protein (FAP), recombinant human, carrier-free (BioLegend) (Homo sapiens) (UniProt Q12884)
Assay: CE-LIF (NECEEM)
Conditions: CE-LIF/NECEEM: buffer for Kd not stated, CE separation (SELEX) 20 kV, 25 C, specificity: 10 min at 37 C, PBS pH 7.2 as control, AuNP assay: room temperature …

UniProt Q12884, sequence (Q12884 whole entry): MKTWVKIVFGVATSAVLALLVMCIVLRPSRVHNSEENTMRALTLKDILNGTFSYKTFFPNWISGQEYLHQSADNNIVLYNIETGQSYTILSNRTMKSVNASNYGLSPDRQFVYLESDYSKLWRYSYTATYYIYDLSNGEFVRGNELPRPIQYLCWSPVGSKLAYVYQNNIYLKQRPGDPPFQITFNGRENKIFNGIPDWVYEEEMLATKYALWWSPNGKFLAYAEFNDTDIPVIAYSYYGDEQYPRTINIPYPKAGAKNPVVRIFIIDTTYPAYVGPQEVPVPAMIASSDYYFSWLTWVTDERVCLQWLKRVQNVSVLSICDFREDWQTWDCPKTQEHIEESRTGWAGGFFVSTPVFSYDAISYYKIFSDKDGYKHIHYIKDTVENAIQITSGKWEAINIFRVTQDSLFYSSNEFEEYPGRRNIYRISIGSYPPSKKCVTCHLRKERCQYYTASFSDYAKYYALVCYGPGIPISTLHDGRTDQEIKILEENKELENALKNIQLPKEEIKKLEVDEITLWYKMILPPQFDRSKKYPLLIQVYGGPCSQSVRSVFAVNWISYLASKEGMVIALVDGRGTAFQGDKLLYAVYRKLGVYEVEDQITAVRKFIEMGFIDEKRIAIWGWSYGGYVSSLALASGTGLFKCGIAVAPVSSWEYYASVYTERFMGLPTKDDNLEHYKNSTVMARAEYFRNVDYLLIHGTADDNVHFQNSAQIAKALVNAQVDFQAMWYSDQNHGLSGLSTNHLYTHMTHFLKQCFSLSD

| Sequence | Kd (exact value only in figure) | Kd | also measured |
| --- | --- | --- | --- |
| AGCAGCACAGAGGTCAGATGGCCACATTAGTCTCACCACTACCTGCGTACCTACCGCCGCCCTATGCGTGCTACCGTGAA [AptFAP-A2] | – | – | Kd (lowest affinity of the five, exact value only in figure): > 1000 nM |
| AGCAGCACAGAGGTCAGATGGCAGCTAAGCAGGCGGCTCACAAAACCATTCGCATGCGGCCCTATGCGTGCTACCGTGAA [AptFAP-A5] | > 1000 nM | – | – |
| AGCAGCACAGAGGTCAGATGGCGAAGCGTACCGGCTACCCAGTGACAGTCGCCGTGGGTCCCTATGCGTGCTACCGTGAA [AptFAP-A1] | – | 500 nM | – |
| AGCAGCACAGAGGTCAGATGCCGCAGGCAGCTGCCATTAGTCTCTATCCGTGACGGTATGCCTATGCGTGCTACCGTGAA [AptFAP-A4] | – | 500 nM | – |
| AGCAGCACAGAGGTCAGATGGCCATCCCCCCGTCCGATGAGTGGTGCTCCTATGCGTTCCCCTATGCGTGCTACCGTGAA [AptFAP-A3] | > 1000 nM | – | – |
